This assay concerns the target T1, pig FAPα on Expi293F cells (pig (Sus scrofa), UniProt A5D7B7 1-760 (bovine entry)).
T1 chain: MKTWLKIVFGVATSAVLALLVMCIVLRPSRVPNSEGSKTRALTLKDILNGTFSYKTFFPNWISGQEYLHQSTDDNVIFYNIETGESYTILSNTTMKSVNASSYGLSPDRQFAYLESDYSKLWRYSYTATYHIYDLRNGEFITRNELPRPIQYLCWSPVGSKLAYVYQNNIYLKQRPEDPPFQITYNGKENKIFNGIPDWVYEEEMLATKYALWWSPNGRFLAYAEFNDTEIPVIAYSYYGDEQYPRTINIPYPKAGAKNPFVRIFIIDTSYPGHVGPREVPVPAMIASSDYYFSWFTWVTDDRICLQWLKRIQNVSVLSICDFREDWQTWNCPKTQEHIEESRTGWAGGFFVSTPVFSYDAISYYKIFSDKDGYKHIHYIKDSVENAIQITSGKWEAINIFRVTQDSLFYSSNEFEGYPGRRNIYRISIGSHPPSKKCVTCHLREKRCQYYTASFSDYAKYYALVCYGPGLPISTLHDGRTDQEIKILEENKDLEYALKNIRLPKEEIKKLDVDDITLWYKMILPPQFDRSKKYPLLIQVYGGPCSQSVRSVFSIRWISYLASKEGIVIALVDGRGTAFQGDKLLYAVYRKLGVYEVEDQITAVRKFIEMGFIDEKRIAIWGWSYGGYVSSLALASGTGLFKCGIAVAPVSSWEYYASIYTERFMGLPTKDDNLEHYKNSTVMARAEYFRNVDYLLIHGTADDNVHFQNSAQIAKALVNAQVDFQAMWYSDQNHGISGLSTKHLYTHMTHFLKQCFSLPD
Briefly: flow cytometry on Expi293F cells transiently expressing pig FAPα, gMFI PE. As for the experimental part:
Binding of BisG1-FAPα-FERL/DR4-FERR, BisG1-FAPα-FEAL/b12-FEAR and IgG1-FAPα-FERL to FAPα of species commonly used for nonclinical toxicology studies was assessed by flow cytometry using Expi293F cells transiently expressing FAPα from different animal species. IgG1-b12 was included as negative control.
Expi293F cells expressing recombinant FAPα from various species (human, cynomolgus monkey, dog, pig, rat or mouse) were seeded (20,000 cells/well) in 96-Well round bottom plates (Greiner Bio-one, Cat #650101). Antibody dilutions were prepared using FACS buffer, consisting of PBS (Capricorn Scientific, Cat #PBS-10XA, diluted to 1×PBS in distilled water)+1% BSA (Roche, Cat #10735086001)+0.02% Sodium Azide (Bio-World, Cat #41920044-3). Plates were centrifuged, supernatant was removed, and cells were resuspended in 100 μL of antibody dilutions (concentration range 30-0.00017 μg/mL with three-fold serial dilutions using FACS buffer) of BisG1-FAPα-FERL/DR4-FERR, BisG1-FAPα-FEAL/b12-FEAR, IgG1-FAPα-FERL and IgG1-b12 and incubated for 30 min at 4° C. […] After 30 min incubation at 4° C., cells were washed with FACS buffer and resuspended in FACS buffer supplemented with TO-PRO-3 Iodide viability marker (Invitrogen, Cat #T3605, diluted 1:4,000). Antibody binding to viable cells (gMFI of PE on TO-PRO-3 negative cells) was analyzed by flow cytometry on a FACS Celesta and FACS_Diva software (first two experiments) or iQue® 3 and FlowJo software (last experiment). gMFI was determined and visualized using GraphPad Prism. Binding curves were analyzed using nonlinear regression analysis. The concentration (pg/mL) at which 50% of the maximal effect was observed (EC₅₀) was derived from the fitted curves.

Where a chain is given by its changes, count along the chain named.

B1: BisG1-FAPα-FERL/DR4-FERR (bispecific antibody, human IgG1, kappa, lambda)
heavy 1: EVQLLESGGGLVQPGGSPRLSCEASGFTFSSYALSWVRQAPGKGLEWVSAISGSGGGRYYADSVKGRFTISRDNSKNTLFLQMNSLRAEDTAVYYCAKEGYSSSGTYWDHWGQGTLVTVSSASTKGPSVFPLAPSSKSTSGGTAALGCLVKDYFPEPVTVSWNSGALTSGVHTFPAVLQSSGLYSLSSVVTVPSSSLGTQTYICNVNHKPSNTKVDKRVEPKSCDKTHTCPPCPAPEFERGPSVFLFPPKPKDTLMISRTPEVTCVVVDVSHEDPEVKFNWYVDGVEVHNAKTKPREEQYNSTYRVVSVLTVLHQDWLNGKEYKCKVSNKALPAPIEKTISKAKGQPREPQVYTLPPSREEMTKNQVSLTCLVKGFYPSDIAVEWESNGQPENNYKTTPPVLDSDGSFLLYSKLTVDKSRWQQGNVFSCSVMHEALHNHYTQKSLSLSPG
light 1: AIQMTQSPSSVSASVGDRVTITCRASQGVSSWLAWYQQKPGRAPKLLIYVASTLQSGVPSRFSGSGSGTDFTLTINSLQPEDFATYYCQQANSFPPTFGQGTRLEMKRTVAAPSVFIFPPSDEQLKSGTASVVCLLNNFYPREAKVQWKVDNALQSGNSQESVTEQDSKDSTYSLSSTLTLSKADYEKHKVYACEVTHQGLSSPVTKSFNRGEC
heavy 2: QVQLQESGPGLVKPSGTLSLTCAVSGGSISSYSWWSWIRQPPGKGLEWIGELYHSGSTNYNPSLKSRVTISVDKSKNQFSLKLRSVTAADTAVYYCVRGVATIDYWGQGTLVTVSSASTKGPSVFPLAPSSKSTSGGTAALGCLVKDYFPEPVTVSWNSGALTSGVHTFPAVLQSSGLYSLSSVVTVPSSSLGTQTYICNVNHKPSNTKVDKRVEPKSCDKTHTCPPCPAPEFERGPSVFLFPPKPKDTLMISRTPEVTCVVVDVSHEDPEVKFNWYVDGVEVHNAKTKPREEQYNSTYRVVSVLTVLHQDWLNGKEYKCKVSNKALPAPIEKTISKAKGQPREPQVYTLPPSREEMTKNQVSLTCLVKGFYPSDIAVEWESNGQPENNYKTTPPVLDSDGSFFLYSRLTVDKSRWQQGNVFSCSVMHEALHNHYTQKSLSLSPG
light 2: QSALTQPPSASGSPGQSVTISCTGTSSDVGGYNFVSWYQQDPGKAPKLLIYEVTKRPSGVPDRFSGSKSGNTASLTVSGLQAEDEADYYCSSYAGSNNVMFGGGTKLTVLGQPKAAPSVTLFPPSSEELQANKATLVCLISDFYPGAVTVAWKADSSPVKAGVETTTPSKQSNNKYAASSYLSLTPEQWKSHRSYSCQVTHEGSTVEKTVAPTECS
notes: Human IgG1 bispecific made by controlled Fab-arm exchange of IgG1-FAPα-FERL and IgG1-DR4-FERR; monovalent for FAPα and for DR4; also called GEN1057
As to B1, the binding result is listed as “binds”.

B2: IgG1-FAPα-FERL (antibody)
heavy: B1 heavy 1
light: B1 light 1
notes: Bivalent monoclonal IgG1 kappa
On to B2, for which the “EC50 (read off the curve)” value was roughly 0.3 mg/L.

B3: BisG1-FAPα-FEAL/b12-FEAR (bispecific antibody, human IgG1, kappa)
heavy 1: B1 heavy 1 with R240G, D269A
light 1: B1 light 1
heavy 2: QVQLVQSGAEVKKPGASVKVSCQASGYRFSNFVIHWVRQAPGQRFEWMGWINPYNGNKEFSAKFQDRVTFTADTSANTAYMELRSLRSADTAVYYCARVGPYSWDDSPQDNYYMDVWGKGTTVIVSSASTKGPSVFPLAPSSKSTSGGTAALGCLVKDYFPEPVTVSWNSGALTSGVHTFPAVLQSSGLYSLSSVVTVPSSSLGTQTYICNVNHKPSNTKVDKRVEPKSCDKTHTCPPCPAPEFEGGPSVFLFPPKPKDTLMISRTPEVTCVVVAVSHEDPEVKFNWYVDGVEVHNAKTKPREEQYNSTYRVVSVLTVLHQDWLNGKEYKCKVSNKALPAPIEKTISKAKGQPREPQVYTLPPSREEMTKNQVSLTCLVKGFYPSDIAVEWESNGQPENNYKTTPPVLDSDGSFFLYSRLTVDKSRWQQGNVFSCSVMHEALHNHYTQKSLSLSPG
light 2: EIVLTQSPGTLSLSPGERATFSCRSSHSIRSRRVAWYQHKPGQAPRLVIHGVSNRASGISDRFSGSGSGTDFTLTITRVEPEDFALYYCQVYGASSYTFGQGTKLERKRTVAAPSVFIFPPSDEQLKSGTASVVCLLNNFYPREAKVQWKVDNALQSGNSQESVTEQDSKDSTYSLSSTLTLSKADYEKHKVYACEVTHQGLSSPVTKSFNRGEC
notes: Fab-arm exchange of IgG1-FAPα-FEAL and IgG1-b12-FEAR
B3: the binding result is “binds”.
